Patent US12679878B2, “CRF2 receptor agonists and their use in therapy” (SANOFI, priority 2020, dated 2026)
Starred links: 1 amine or outer side, 2 acyl side, 3 side chain; linkers in the order of their positions; H or OH if unused. Non-standard residues stand in square brackets, D forms with d. Groups on a side chain read outwards from the residue. No end group written: not given here. *: point of attachment. C18 diacid = O=C(O)CCCCCCCCCCCCCCCCC(=O)*; γGlu = O=C(O)[C@H](CCC(=O)[*:2])N[*:1]; AEEA = NCCOCCOCC(=O)O; Aib = CC(C)(N)C(=O)O

Target: rat CRF2R α receptor (rat, UniProt P47866 20-411)
Test: cell-based or functional assay

rat CRF2R α receptor, sequence (P47866 20-411): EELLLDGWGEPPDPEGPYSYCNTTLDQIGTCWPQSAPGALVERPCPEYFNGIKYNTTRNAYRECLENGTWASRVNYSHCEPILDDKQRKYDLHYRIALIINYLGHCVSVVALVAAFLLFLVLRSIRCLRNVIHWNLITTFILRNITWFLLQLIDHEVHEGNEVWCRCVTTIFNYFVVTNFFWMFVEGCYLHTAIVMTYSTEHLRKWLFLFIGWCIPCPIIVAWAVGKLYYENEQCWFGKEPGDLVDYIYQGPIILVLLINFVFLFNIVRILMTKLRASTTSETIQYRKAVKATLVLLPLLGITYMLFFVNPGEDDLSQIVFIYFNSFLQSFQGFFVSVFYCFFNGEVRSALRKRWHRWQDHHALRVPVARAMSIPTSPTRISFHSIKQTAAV

| Binder | EC50 [nM], 0% HSA (cAMP, A7R5 cells) [nM] |
| --- | --- |
| IVLSLD[dV]PIKLK([AEEA-AEEA-γGlu-C18 diacid])QILLEQARQK[Aib]QREQAEKNKRILERV-NH2 (N-terminus assumed; SMILES CC[C@H](C)[C@H](N)C(=O)N[C@H](C(=O)N[C@@H](CC(C)C)C(=O)N[C@@H](CO)C(=O)N[C@@H](CC(C)C)C(=O)N[C@@H](CC(=O)O)C(=O)N[C@@H](C(=O)N1CCC[C@H]1C(=O)N[C@H](C(=O)N[C@@H](CCCCN)C(=O)N[C@@H](CC(C)C)C(=O)N[C@@H](CCCCNC(=O)COCCOCCNC(=O)COCCOCCNC(=O)CC[C@H](NC(=O)CCCCCCCCCCCCCCCCC(=O)O)C(=O)O)C(=O)N[C@@H](CCC(N)=O)C(=O)N[C@H](C(=O)N[C@@H](CC(C)C)C(=O)N[C@@H](CC(C)C)C(=O)N[C@@H](CCC(=O)O)C(=O)N[C@@H](CCC(N)=O)C(=O)N[C@@H](C)C(=O)N[C@@H](CCCNC(=N)N)C(=O)N[C@@H](CCC(N)=O)C(=O)N[C@@H](CCCCN)C(=O)NC(C)(C)C(=O)N[C@@H](CCC(N)=O)C(=O)N[C@@H](CCCNC(=N)N)C(=O)N[C@@H](CCC(=O)O)C(=O)N[C@@H](CCC(N)=O)C(=O)N[C@@H](C)C(=O)N[C@@H](CCC(=O)O)C(=O)N[C@@H](CCCCN)C(=O)N[C@@H](CC(N)=O)C(=O)N[C@@H](CCCCN)C(=O)N[C@@H](CCCNC(=N)N)C(=O)N[C@H](C(=O)N[C@@H](CC(C)C)C(=O)N[C@@H](CCC(=O)O)C(=O)N[C@@H](CCCNC(=N)N)C(=O)N[C@H](C(N)=O)C(C)C)[C@@H](C)CC)[C@@H](C)CC)[C@@H](C)CC)C(C)C)C(C)C) [peptide of SEQ ID NO: 142] | 0.2 |
| Ac-IVLSLD[dV]PIKLK([AEEA-AEEA-γGlu-C18 diacid])QILLEQARQK[Aib]QREQAEKNKQILEQV-NH2 (SMILES CC[C@H](C)[C@H](NC(C)=O)C(=O)N[C@H](C(=O)N[C@@H](CC(C)C)C(=O)N[C@@H](CO)C(=O)N[C@@H](CC(C)C)C(=O)N[C@@H](CC(=O)O)C(=O)N[C@@H](C(=O)N1CCC[C@H]1C(=O)N[C@H](C(=O)N[C@@H](CCCCN)C(=O)N[C@@H](CC(C)C)C(=O)N[C@@H](CCCCNC(=O)COCCOCCNC(=O)COCCOCCNC(=O)CC[C@H](NC(=O)CCCCCCCCCCCCCCCCC(=O)O)C(=O)O)C(=O)N[C@@H](CCC(N)=O)C(=O)N[C@H](C(=O)N[C@@H](CC(C)C)C(=O)N[C@@H](CC(C)C)C(=O)N[C@@H](CCC(=O)O)C(=O)N[C@@H](CCC(N)=O)C(=O)N[C@@H](C)C(=O)N[C@@H](CCCNC(=N)N)C(=O)N[C@@H](CCC(N)=O)C(=O)N[C@@H](CCCCN)C(=O)NC(C)(C)C(=O)N[C@@H](CCC(N)=O)C(=O)N[C@@H](CCCNC(=N)N)C(=O)N[C@@H](CCC(=O)O)C(=O)N[C@@H](CCC(N)=O)C(=O)N[C@@H](C)C(=O)N[C@@H](CCC(=O)O)C(=O)N[C@@H](CCCCN)C(=O)N[C@@H](CC(N)=O)C(=O)N[C@@H](CCCCN)C(=O)N[C@@H](CCC(N)=O)C(=O)N[C@H](C(=O)N[C@@H](CC(C)C)C(=O)N[C@@H](CCC(=O)O)C(=O)N[C@@H](CCC(N)=O)C(=O)N[C@H](C(N)=O)C(C)C)[C@@H](C)CC)[C@@H](C)CC)[C@@H](C)CC)C(C)C)C(C)C) [peptide of SEQ ID NO: 157] | 1.14 |
